# Test results published in patent US20090142784.
# Assays:
# [1] = test system: T1, LRRKtide peptide (RLGRDKYKTLRQIRQ)
# T1 sequence: RLGRDKYKTLRQIRQ
# [2] = test system: T2, LongLRRKtide (RLGRDKYKTLRQIRQGNTKQR)
# T2 sequence: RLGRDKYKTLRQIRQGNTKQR
substance,measurement,setting,value
GST-LRRK2[1326-2527],"Km (phosphorylation of LRRKtide, P81 paper 32P assay)",[1],a similar Km of approximately 200 µM
same,affinity relative to LRRKtide (from phosphorylation with LRRK2),[2],The LRRK2 affinity for the longLRRKtide is ten fold more than that that of LRRKtide
